Reference: the DeepSol protein solubility set

Test: soluble on expression in E. coli; label from the status in PepcDB or PDB records

| Sequence | soluble on expression in E. coli |
| --- | --- |
| MSLGAQADTILNVATAGDQNMVDYVKTWLGPKFEAAHPGVKVRVIGTGPGDAGSNKISEKLTAQQESGAQQWDIDVAVVHQKAGGEQVAKGLLQKYRQDIQTGGMVSSPSATQALGVNVDGYVMPMFLSQTAIAWNSDLVTTPPASYDELVAWTQKHPQAFGYNGIKNGMSGVSFVVGWIYAYGTDAQRLSAGPYDKSVEKGWQQAYEKLKAFNKNVTFTPGNAGTLDMLSRGEIAMGPVWVDMFYSWKDQGKLPPSIKLALLAPGMPGQPMYYVIPAKAANPQLARDFIALATSPEVQAQGIVKQFNWYPGIDAGQVKPKLDAATWQKLFAEISPEALAKYGKSFPIAPYFDDIKEGYESQVANEGHHHHHH | soluble |
| MSLGDLLTFATGHKYYGINFDEDERGWYYREWAPEAYEVYLTGDFNDWDRRSHPLTRNEFGVWQIFLPYDLYQKRFVHKSKIKVQIVGANGTHDRIPAYITRVVQDTETTDFSGQLWFPQKPFEWTDRDFNLRKIKNPIIYEAHVGMAQEKEGVGTYREFADKIVPRIRQMGYNSIQLMAVMEHPYYGSFGYHVSNFFAPSSRFGTPEDLKYLVDRAHKFGLAVIMDVVHSHAVKNLSEGLNEFDGSDHQYFHPGDRGYHTGWDSKLFDYGKLEVKRFLLSNLRYWLEEYHFDGFRFDGVTSMLYFDHGMKTFDSYDTYFKGGVDFDAVTYLQLANEVTHRYLKDSITIAEDVSGMPGLSRSIRDGGVGFDYRLAMGIPDFWIKYLKHLQDEQWNIYEMWSTLTNRRYKEKTIAYAESHDQAMVGDKTIAFWLMDKEMYFHMQVDDPNPVIDRGIAIHKLLRLFTFALGGEGYLNFMGNEFGHPEWIDFPREGNGWSYQYARRQWSLVDNPKLKYQYLGAFDEAMMRLVRKTRLLAAEPAQQLNMDDHNKVIIFERNNMIFVFNFSVSNSVFDYKFKSFAPGTFEIVLNSDDTRFGGHGRVDDTLEYHTNTEGQLSIYTPNRSVLVFQRKEASEGHHHHHH | not soluble |
| MSLGEKTKLEQIKDNGKLVVGTSAEFPPFEFHKVVDGKDSIKGFDIMLAEEFAKELGVKVEIKDMSFDGLIGALNADQVDIVLAGMSPTPEREKSVDFSELYYLSRNAVIVKDADIDKVKTEDDLKKLRVGVQAGSIQEEYVVNTLKMTTTKSLKAIPDLITELKNGNIDAVVTNEAVSLINVKKYDGIKMANTEVGKDVTEGMAAAIKKSDNNKDFIELLNKKIKELQDGKKIEEFLNEASTEAASEGHHHHHH | soluble |
| MSLGHELYLVGGSVRDALLGRLSPDLDFTTDARPERVQEIVRPWADAVWDTGIEFGTVGVGKSDHRMEITTFRADSYDRVSRHPEVRFGDCLEGDLVRRDFTTNAMAVRVTATGPGEFLDPLGGLAALRAKVLDTPAAPSGSFGDDPLRMLRAARFVSQLGFAVAPRVRAAIEEMAPQLARISAERVAAELDKLLVGEDPAAGIDLMVQSGMGAVVLPEIGGMRMAIDEGHHHHHH | not soluble |
| MSLGIKVNRLKVEDQILRQFGGNLLLEKDGNRGFIAFIGRGLIDFTERIRILATVSRIKDILFIGTAGSLSNEILIGDLNIPKYAIPFENVSDFYADPTIAIPQADEKLLNEVYEYAEETGVKTHSTLHATLLFPYSETTEFLNYLLNIGVSTIDMEVSAFYKMSRFYGKRAVAVLRISDMPLIELHKQEELIKARREIAVNAVFRITLRFLKLEGHHHHHH | not soluble |
| MSLGIVIYGTRVIYPAEKKEVVVQLVNQGEQASLVQSWIDDGNTSLPPEKIQVPFMLTPPVARVAAESGQQIKIKKMPNSLPDNKESLFYLNVLDIPPNSQENAGKNVLKFAMQNRIKLIWRPSRIAAVTKDSFQRIGLFRSNKAVIMKNDTANWITVTDVKAGNTKINDQTIMLPPLSTQNINMKYASTSQYEVTIIDDNGNYISSKMNVKEGHHHHHH | soluble |
| MSLGKLSILSKRKYTMKNQIQFSTFNFKDLPVRVILDPKGEFWFCGTDVCHILGYTNSRKALQDHCKQGGVTKRYTPTKSADQEMTFINEPNLYRLIIKSRKPEAEPFEAWVFEEVLPQIRKTGKYQLQPQQLALPEPEKKFSFEFTEYELQQLVWLWFAFMRGIVTFQHIEKAFKALGSNMSGDIYGQAYEYLSVYAQQTKSEGHHHHHH | not soluble |
| MSLGKRIFVFDTTLRDGEQVPGCQLNTEEKIIVAKALDELGVDVIEAGFPVSSPGDFNSVVEITKAVTRPTICALTRAKEADINIAGEALRFAKRSRIHTGIGSSDIHIEHKLRSTRENILEMAVAAVKQAKKVVHEVEFFCEDAGRADQAFLARMVEAVIEAGADVVNIPDTTGYMLPWQYGERIKYLMDNVSNIDKAILSAHCHNDLGLATANSLAALQNGARQVECTINGIGERAGNTALEEVVMAMECHKETLGLETGINHKKLVPISHLVSTLMRMQVQSNKAIVGRNAFAHSSGIHQDGFLKHRETYEIIDPAAVGADSSSIILTARSGRAALNHRLATIGYMLSKDQLDQAYTQFLDMADHLRKVEDENLHELMRGKVYAKEGHHHHHH | soluble |
| MSLGNKSEAYEQYIQQIKEENGINNFFDRYPYLLKQINREVRLIEESYSLLFDRFLKDLSELRSCFNITEPLSNVEFSLGDSHSQKQTVVKIEFKGKSIYYKPKSYDSYNILLELISLLKSNNIPSFSLPESLIKADYCWQLGVDYINSNNDEVKRIYFKYGVLAAFSEIFSITDLHMENVIVSGGDLYLIDVETFFQRKLNVQTNNFEGITVDTYQRIYETSLSNGLFPVQFEKNSAPNISGISGKGGKRKKGKYELINKNRGDMKLVKTDYFQEDSYNIPTLNEKMVEPLDYANEVIAGFRECYTFLMTQRAKVKKILYGFPKLRTRAIFRNTSDYGKFLQASTNPKYLFSEKKRENLFSILYESKHIEQFIVDSEIKDLMNGDIPYFSMDPNGNVYNSLGTVIGNLGKTTSLFDNIATLNDERMKFTCELIGIVLKKPIKHWERKDGKSYYFPSISSKQSFNEEILRQREGHHHHHH | not soluble |
| MSLGQFWHVTDLHLDPTYHITDDHTKVCASSKGANASNPGPFGDVLCDSPYQLILSAFDFIKNSGQEASFMIWTGDSPPHVPVPELSTDTVINVITNMTTTIQSLFPNLQVFPALGNHDYWPQDQLPVVTSKVYNAVANLWKPWLDEEAISTLRKGGFYSQKVTTNPNLRIISLNTNLYYGPNIMTLNKTDPANQFEWLESTLNNSQQNKEKVYIIAHVPVGYLPSSQNITAMREYYNEKLIDIFQKYSDVIAGQFYGHTHRDSIMVLSDKKGSPVNSLFVAPAVTPVKSVLEKQTNNPGIRLFQYDPRDYKLLDMLQYYLNLTEANLKGESIWKLEYILTQTYDIEDLQPESLYGLAKQFTILDSKQFIKYYNYFFVSYDSSVTCDKTCKAFQICAIMNLDNISYADCLKQLYIKHNYEGHHHHHH | not soluble |
| MSLGQKFAVFIAYDDEPNTKRYSAEFQTQDEYVKGWQSALKKAHHTSGQKSVISCGCRGKGAKRLYVRSLPNSDTFILIKAANTGTEHDPSCVFFDLDARHTGLKGYASNVVRINNEGTMSIRLGIGMTEKDPPEKSEVPSLPQIQRPEGGQASMTLSGLLSLLWTEAGLNVWYPNMAGKRNDSLVRYRMLEAAKQIRSGRACIGDHLFIGVADSKSKVASEQVQLLSSAELSDKRLLLLSVLPRYDAEKHEKPLKFLPMRNFGGMPLTFFNSDGHWDSVKRRFPLEYAAWKNGGKVVVFALTSPVSVTSRGISARAHQIVLMLVSDNWIPLDSSYEAIVSRKLDAEHRHYVKPMRYDASASDVFPDFYLLDTRSDKPFPMEVFGMSTPAYLARKELKKAYYNQEYGAYGWWHWDATEKTEYQELPHFPEARREGHHHHHH | soluble |
| MSLGQRTSRTPDQLENVGVDQKLGATIPKDLSFQNEQGEPVRLSQYFDGSTPVMLTLNYHRCPQLCRIQLQKFTKSLSGMSWTAGDKFKVLTVDISPYEGPKMARKAQERYATFLDRPEETVDGWHFLTGNQAAIETLTDSVGFRYQPLPEKEKQFAHPTTIIFLSGDGTITRYFTTLDPAPGDLRTALVEASDGEGHHHHHH | soluble |
| MSLGSPKSVRIVVVGDKGTGKSSLIVAAATDSFPPNVPPVLPDYKLPIEFFPDGIPVTIVDTSSRPEDRDIVAEELKRADAVVLTYACDRPETLERLSEYWLPELRRLEVKIPIIVAGCKLDFRDDNNQVSLEQVMSPIMQQFREIETCIECSALKQLQAQEVFYYAQKTVLHPTGPLFDQEGHHHHHH | soluble |
